Assay in all cases: cell binding
Experiment [1] concerns the target T1, human MAdCAM expressed on cells (human, UniProt Q13477 19-382).
T1 construct: whole, on cells
T1 sequence (looked up): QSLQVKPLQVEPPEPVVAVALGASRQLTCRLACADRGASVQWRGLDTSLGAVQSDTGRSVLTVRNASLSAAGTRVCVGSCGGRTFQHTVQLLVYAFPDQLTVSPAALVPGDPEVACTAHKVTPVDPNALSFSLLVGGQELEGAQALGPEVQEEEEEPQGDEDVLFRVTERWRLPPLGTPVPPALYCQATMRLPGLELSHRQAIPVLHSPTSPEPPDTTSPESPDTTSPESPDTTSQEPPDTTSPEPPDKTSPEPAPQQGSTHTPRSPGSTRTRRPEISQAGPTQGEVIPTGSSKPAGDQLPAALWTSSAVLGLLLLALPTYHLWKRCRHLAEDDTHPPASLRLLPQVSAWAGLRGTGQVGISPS

For experiment [2], the target named is T2, mouse MAdCAM expressed on cells (mouse, UniProt Q61826 22-405).
T2 construct: whole, on cells
T2 sequence (looked up): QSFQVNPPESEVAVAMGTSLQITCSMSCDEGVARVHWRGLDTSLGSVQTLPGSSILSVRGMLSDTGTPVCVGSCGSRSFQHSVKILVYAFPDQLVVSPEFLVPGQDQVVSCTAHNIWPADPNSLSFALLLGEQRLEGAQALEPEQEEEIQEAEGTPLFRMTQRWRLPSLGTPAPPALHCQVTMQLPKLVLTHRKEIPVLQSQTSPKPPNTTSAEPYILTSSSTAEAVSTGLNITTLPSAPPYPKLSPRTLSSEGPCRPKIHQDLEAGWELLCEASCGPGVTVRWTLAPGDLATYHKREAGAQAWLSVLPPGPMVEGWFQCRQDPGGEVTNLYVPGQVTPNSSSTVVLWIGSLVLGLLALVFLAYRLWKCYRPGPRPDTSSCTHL

Experiment [3] concerns the target T1, human MAdCAM expressed on cells. This is another data set of the same source.
The target of experiment [4] is T2, mouse MAdCAM expressed on cells. The source holds these as a separate data set.

Like-named read-outs stand apart in the source and are kept apart here.

B1: MAdCAM antibody Table 1 clone 27 (scFv)
scFv: QVQLVQSGAEVKKPGASVKVSCKASGYTFTGYYIHWVRQAPGQGLEWMGWMNPNSGNTGYAQKFQGRVTMTRDTSTSTVYMELSSLRSEDTAVYYCARDPGFLGYCSGGSCYDGWFDPWGQGTLVTVSSGGGGSGGGGSGGGGSGGGGSDIQMTQSPSSLSASVGDRVTITCRASQSISSYLHWYQQKPGKAPKLLIYAASSLQSGVPSRFSGSGSGTDFTLTISSLQPEDFATYYCQQSYTAPYTFGQGTKLEIK
In the case of B1, the results for the binding result in experiment [1] and in experiment [2] were “binds” and “no binding”, respectively.

B2: MAdCAM Antibody Table 2 clone 71 (antibody, V domains shown)
VH: QVQLVQSGAEVKKPGASVKVSCKASGYTFTSYYMHWVRQAPGQGLEWMGIINPSGGSTSYAQKFQGRVTMTRDTSTSTVYMELSSLRSEDTAVYYCARDSVAGTGGRYYGMDVWGQGTLVTVSS
VL: DIQMTQSPSSLSASVGDRVTITCRASQGISNYFAWYQQKPGKAPKLLIYAASSLQGGVPSRFSGSGSGTDFTLTISSLQPEDFATYYCQQSYSLPYTFGQGTKLEIK
notes: IgG format
In the case of B2, the binding result in experiment [3] is given as “binds”; in experiment [4] it was “no binding”.

B3: MAdCAM Antibody Table 2 clone 81 (antibody, V domains shown)
VH: EVQLLESGGGLVKPGGSLRLSCAASGFAFSSHWMHWVRQAPGKGLEWVAGTSGSGESRDYADFVKGRFTISRDDSKNTLYLQMNSLKTEDTAVYYCARETYYYYYMDVWGKGTTVTVSS
VL: DIQMTQSPSSLSASVGDRVTITCRASQGISNYLAWYQQKPGKAPKLLIYDAANLEGGVPSRFSGSGSGTDFTLTISSLQPEDFATYYCQQSDIFPPTFGQGTKVEIK
notes: IgG format
As to B3, the binding result in experiment [3] and in experiment [4] was “binds” in each case.

B4: MAdCAM antibody Table 1 clone 8 (scFv)
scFv: EVQLLESGGGLVQPGGSLRLSCAASGFMFGDYAMHWVRQAPGKGLEWVSAISGSGGSTYYADSVKGRFTISRDNSKNTLYLQMNSLRAEDTAVYYCAKDLVVAGIWYFDLWGRGTLVTVSSGGGGSGGGGSGGGGSGGGGSDIQMTQSPSSLSASVGDRVTITCRASQGISNNLNWYQQKPGKAPKLLIYDASSLESGVPSRFSGSGSGTDFTLTISSLQPEDFATYYCQQTHSFPSTFGQGTKLEIK
Consider B4, for which, in experiment [2], the binding result is recorded as “no binding”.

B5: MAdCAM antibody Table 1 clone 21 (scFv)
scFv: EVQLLESGGGLVQPGGSLRLSCAASGFTFSNAWMSWVRQAPGKGLEWVSTIVGNGGATYYADSVKGRFTISRDNSKNTLYLQMNSLRAEDTAVYYCARDNPLRWQGMDVWGQGTLVTVSSGGGGSGGGGSGGGGSGGGGSDIQMTQSPSSLSASVGDRVTITCRASQDISNYLNWYQQKPGKAPKLLIYAASSLQSGVPSRFSGSGSGTDFTLTISSLQPEDFATYYCQQSYSIPPTFGPGTKVDIK
As for B5, the binding result in experiment [1] is listed as “binds”; in experiment [2], “no binding”.

B6: MAdCAM antibody Table 1 clone 16 (scFv)
scFv: EVQLLESGGGLVQPGGSLRLSCAASGFTFEDYAMHWVRQAPGKGLEWVSYLNSDGGSTSYADSVKGRFTISRDNSKNTLYLQMNSLRAEDTAVYYCAKDYCTNGVCAFDYWGQGTLVTVSSGGGGSGGGGSGGGGSGGGGSDIQMTQSPSSLSASVGDRVTITCRASQSISTYLNWYQQKPGKAPKLLIYDASNLETGVPSRFSGSGSGTDFTLTISSLQPEDFATYYCQQSYTIPITFGQGTRLEIK
On to B6, for which the binding result in experiment [1] was “binds”; in experiment [2] it was “no binding”.

B7: MAdCAM antibody Table 1 clone 10 (scFv)
scFv: QVQLVQSGAEVKKPGASVKVSCKASGYTLTTWYMYWVRQAPGQGLEWMGWINPNRGATNYAQKFQGRVTMTRDTSTSTVYMELSSLRSEDTAVYYCAKGDLWGAMDVWGQGTLVTVSSGGGGSGGGGSGGGGSGGGGSDIQMTQSPSSLSASVGDRVTITCRASDNIGSWLAWYQQKPGKAPKLLIYAASSLQSGVPSRFSGSGSGTDFTLTISSLQPEDFATYYCQQGYSTPPTFGQGTKVEIK
In the case of B7, the values for the binding result in experiment [1] and in experiment [2] were “binds” and “no binding”, respectively.

B8: MAdCAM antibody Table 1 clone 25 (scFv)
scFv: QVQLVQSGAEVKKPGASVKVSCKASGYTLTTWYMYWVRQAPGQGLEWMGWINPNRGATNYAQKFQGRVTMTRDTSTSTVYMELSSLRSEDTAVYYCAKGDLWGAMDVWGQGTLVTVSSGGGGSGGGGSGGGGSGGGGSDIQMTQSPSSLSASVGDRVTITCRASDNIGSWLAWYQQKPGKAPKLLIYAASSLQSGVPSRFSGSGSGTDFTLTISSLQPEDFATYYCQQGYSTPPTFGQGTKVEIK
On to B8, for which the binding result in experiment [2] is given as “no binding”.

B9: MAdCAM antibody Table 1 clone 30 (scFv)
scFv: QVQLVQSGAEVKKPGASVKVSCKASGYTLTTWYMYWVRQAPGQGLEWMGWINPNRGATNYAQKFQGRVTMTRDTSTSTVYMELSSLRSEDTAVYYCAKGDLWGAMDVWGQGTLVTVSSGGGGSGGGGSGGGGSGGGGSDIQMTQSPSSLSASVGDRVTITCRASDNIGSWLAWYQQKPGKAPKLLIYAASSLQSGVPSRFSGSGSGTDFTLTISSLQPEDFATYYCQQGYSTPPTFGQGTKVEIK
As for B9, the binding result in experiment [2] was “no binding”.

B10: MAdCAM antibody Table 1 clone 26 (scFv)
scFv: QVQLVQSGAEVKKPGASVKVSCKASGYTLTTWYMYWVRQAPGQGLEWMGWINPNRGATNYAQKFQGRVTMTRDTSTSTVYMELSSLRSEDTAVYYCAKGDLWGAMDVWGQGTTVTVSSGGGGSGGGGSGGGGSGGGGSDIQMTQSPSSLSASVGDRVTITCRASDNIGSWLAWYQQKPGKAPKLLIYAASSLQSGVPSRFSGSGSGTDFTLTISSLQPEDFATYYCQQGYSTPPTFGQGTKVEIK
Turning to B10, the binding result in experiment [1] is recorded as “binds”; in experiment [2], “no binding”.

B11: MAdCAM Antibody Table 2 clone 77 (antibody, V domains shown)
VH: EVQLLESGGGLVQPGGSLRLSCAASEFTFSNAWMSWVRQAPGKGLEWVASISSTSAYIDYADSVKGRFTISRDNSKNTLYLQMNSLRAEDTAVYYCAREVVGATTFDYWGQGTLVTVSS
VL: DIQMTQSPSSLSASVGDRVTITCRASQSISTWLAWYQQKPGKAPKLLIYAASSLQSGVPSRFSGSGSGTDFTLTISSLQPEDFATYYCQQANAFPPTFGQGTRLEIK
notes: IgG format
Take B11: the binding result in experiment [3] and in experiment [4] was “binds” throughout.

B12: MAdCAM antibody Table 1 clone 28 (scFv)
scFv: QVQLVQSGAEVKKPGASVKVSCKASGYTFTDYFLHWVRQAPGQGLEWMGWMNPTSGNTGYAQKFQGRVTMTRDTSTSTVYMELSSLRSEDTAVYYCAREGEGSGFDYWGQGTLVTVSSGGGGSGGGGSGGGGSGGGGSDIQMTQSPSSLSASVGDRVTITCRASQGINSWLAWYQQKPGKAPKLLIYDASNLETGVPSRFSGSGSGTDFTLTISSLQPEDFATYYCQQSYSTPLTFGGGTKVEIK
In the case of B12, the values for the binding result in experiment [1] and in experiment [2] were “binds” and “no binding”, respectively.

B13: MAdCAM Antibody Table 2 clone 72 (antibody, V domains shown)
VH: QVQLVQSGAEVKKPGASVKVSCKASGYTFTSYYMHWVRQAPGQGLEWMGVINPIGGTTTYAQKFQGRVTMTRDTSTSTVYMELSSLRSEDTAVYYCASGAPSYYYYGMDVWGQGTLVTVSS
VL: DIQMTQSPSSLSASVGDRVTITCRASQSISSYLNWYQQKPGKAPKLLIYGTSYLATGVPSRFSGSGSGTDFTLTISSLQPEDFATYYCQQSYSTPLTFGQGTKVEIK
notes: IgG format
Turning to B13, the binding result was “binds” in experiment [3] and “no binding” in experiment [4].

B14: MAdCAM Antibody Table 2 clone 80 (antibody, V domains shown)
VH: EVQLLESGGGLVQPGGSLRLSCAASGFTFDDYAMHWVRQAPGKGLEWVSAISGSGGSTYYADSVKGRFTISRDNSKNTLYLQMNSLRAEDTAVYYCAKDLGVVVPAALDYWGQGTTVTVSS
VL: DIQMTQSPSSLSASVGDRVTITCQASQDISNHLNWYQQKPGKAPKLLIYDASNLEAGVPSRFSGSGSGTDFTLTISSLQPEDFATYYCQQSYSTPLTFGGGTKVEIK
notes: IgG format
Take B14: the binding result is on record as “binds” in experiment [3] and “no binding” in experiment [4].

B15: MAdCAM Antibody Table 2 clone 73 (antibody, V domains shown)
VH: QVQLVQSGAEVKKPGASVKVSCKASGYTFTSNYVHWVRQAPGQGLEWMGRINPHSGDTSYAQKFQGRVTMTRDTSTSTVYMELSSLRSEDTAVYYCARAGQLWSDWYFDLWGRGTLVTVSS
VL: DIQMTQSPSSLSASVGDRVTITCQASQDIRNYLNWYQQKPGKAPKLLIYAATALRTGVPSRFSGSGSGTDFTLTISSLQPEDFATYYCQQSYSHPLTFGQGTKVEIK
notes: IgG format
B15: the binding result is on record as “binds” in experiment [3] and “no binding” in experiment [4].

B16: MAdCAM antibody Table 1 clone 17 (scFv)
scFv: EVQLLESGGGLVQPGGSLRLSCAASGFTFSDSAMHWVRQAPGKGLEWVSAISGSGSTIYYADSVKGRFTISRDNSKNTLYLQMNSLRAEDTAVYYCVSDIAVAGHWYFDLWGRGTLVTVSSGGGGSGGGGSGGGGSGGGGSDIQMTQSPSSLSASVGDRVTITCRASQSISTFLNWYQQKPGKAPKLLIYAASRLEGGVPSRFSGSGSGTDFTLTISSLQPEDFATYYCQQANSFPLTFGPGTKVDIK
As to B16, the figures for the binding result in experiment [1] and in experiment [2] were “binds” and “no binding”, respectively.
